Reference: patent publication US20220315908A1, “NOVEL GARDNERELLA ENDOLYSINS AND USES THEREOF” (priority 2019, published 2022)
Where a chain is given by its changes, count along the chain named.

B1: H10B10: natural Gardnerella prophage endolysin from strain G30-4 (protein)
chain: MSKRGIDVSVWQGDIDFNAVKASGVEFVIIRAGYGIGHKDKWFEENYRKAKTVGLDVGAYWYSYASSAGEASEEAQSCVNILSGKSFEYPVYFDLEEKSQLNRGRDFCDSLITSFCNKLEACGYYAGFYTSLSVANNLVSSHVRDRYALWIAQWNTHCSYQGSYGLWQYSSSGSVNGIAGRVDMDYAYVDYPSVIKNAGLNGYKNGGSYTAPQISSIDEVAREVINGDWGNGNERKQRLTSAGYDYASVQNKVNELLGVKAYRKSVDELAREVIRGTWGNGSTRKQRLTQAGYDYNAVQKRVNELL
modifications: EL10_strain_G30-4
B2: H1B1: natural Gardnerella prophage endolysin from strain HMP9231 (protein)
chain: MSKKGIDVSEWQGDIDFNAVKASGVEFVIIRAGYGIGCKDKWFEQNYRKAKTAGLDVGAYWYSYANSGFEAAEEAQSLMNMLSGKSFEYPVYFDLEEKSQLNRGRAFCDSLITSFCNKLEACGYYAGFYTSLSTANNLVSAHVRNRYALWIAQWNTHCNYQGSYGLWQYSSNGSVPGVAGRVDMDYAYVDYPSIIKNAGLNGCKNGGSDQAARTSSIDEVAREVINGAWGNGSTRKQRLTSAGYDYASVQNKVNELLGVKACRKSVDELAREVIRGAWGNGSTRKQRLAQAGYDYDTVQKRVNELL
modifications: EL1_strain_HMP9231
notes: natural Gardnerella prophage endolysin from strain HMP9231
B3: H2B2: natural Gardnerella prophage endolysin from strain Gv18-4 (protein)
chain: MSKRGIDVSEWQGDIDFNAVKASGVEFVIIRAGYGIGCKDKWFEQNYRKAKTCGLDVGAYWYSYANSGFEAAEEAQSCVNMLSGKSFEYPVYFDLEEKSQLNRGRAFCDSLITGFCNKLESCGYYAGFYTSLSTANNLVSAHVRNRYALWIAQWNTHCSYQGSYGLWQYSSSGSVPGVAGRVDMDYAYVDYPSIIKNVGLNGCKNGGSDQAARTSSIDEVAREVINGAWGNGNERKQRLTSAGYDYASVQNKVNELLGVKACRKSVDEIAREVIRGTWGNGSTRKQRLTQAGYDYDTVQKRVNELL
modifications: EL2_strain_Gv18-4
B4: H5B5: natural Gardnerella prophage endolysin from strain JCP7276 (protein)
chain: MSKKGIDVSEWQGDIDFNAVKASGVEFVIIRAGYGIGCKDKWFEQNYRKAKTAGLDVGAYWYSYANSSSEAAEEAQSCANMLSGKSFEYPVYFDLEEKSQLNRGRAFCDSLITGFCSKLEACGYYAGFYTSLSTANNLVSAHVRNRYALWIAQWNTHCSYQGSYGLWQYSSNGSVPGVAGRVDMDYAYKDYPSIIKNAGLNGCKNGGSDQAARTSSIDEVAREVINGAWGNGNERKQRLTQAGYDYTSVQNKVNKLLGVKACRKSVDELAREVIRGTWGNGNERKNRLTQAGYDYDTVQKRVNELL
modifications: EL5_strain_JCP7276
notes: natural Gardnerella prophage endolysin from strain JCP7276
B5: H7B7: natural Gardnerella prophage endolysin from strain AMD (protein)
chain: B4 chain with S68A, G114S, A121T, C122Y, A141S, N172S
modifications: EL7_strain_AMD
notes: natural Gardnerella prophage endolysin from strain AMD
B6: H4B4: natural Gardnerella prophage endolysin from strain Gv5-1 (protein)
chain: MSKKGIDVSEWQGDIDFNAVKASGVEFVIIRAGYGIGCKDKWFEQNYRKAKTCGLDVGAYWYSYANSGFEAAEEAQSCVNMLSGKSFEYPVYFDLEEKSQLNRGRAFCDSLITSFCSKLETYGYYAGFYTSLSVVNNLVSAHVRDRYALWIAQWNTHCSYQGSYGLWQYSSSGSVPGVAGRVDMDYAYVDYPSIIKNVGLNGCKNGGSDQATRTSSIDEVAREVINGAWGNGNERKQRLTSAGYDYASVQNKVNKLLGVKAYRKSVDELAREVIRGTWGNGNERKQRLAQAGYDYDTVQKRVNELL
modifications: EL4_strain_Gv5-1
B7: H3B3: natural Gardnerella prophage endolysin from strain Gv18-4 (protein)
chain: MSKKGIDVSVWQGDIDFNSVKASGVEFVIIRAGYGIGHKDKWFEENYRKAKTAGLDVGSYWYSYASSAGEASEEAQSCVNILSGKSFEYPIYFDLEEKSQLNRGRDFCDSLITSFCNKLEACGYYAGFYTSLSVANNLVSSHVRDRYALWIAQWNTHCSYQGSYGLWQYSSSGSVNGIAGRVDMDYAYVDYPSVIKNAGLNGYQNGGSYTAPQTSSIDEVAREVINGDWGNGNDRKNRLISAGYDYASVQNKVNELLGVKAYRKSVDELAREVIRGTWGNGSMRKHRLTQAGYDYDAVQKRVNELL
modifications: EL3_strain_Gv18-4

These molecules were tested on G. vaginalis sensu stricto strain Gv_9 (assay: Quantitative reduction in viable CFU assay in bacterial suspension). Details: Gv_9; 5 hours, pH 5.0, anaerobic; 10 ul endolysin (0.2 mg/ml where possible) + 90 ul 5e7 CFU/ml; average of triplicate.
Assay type: cell-based, Gardnerella vaginalis sensu stricto
Procedure: The lysis activity on the four main species of Gardnerella of 91 constructs (natural and domain-swapped endolysins) was quantitatively assessed using the method described in Reference Example 2. […]
(§1) The results are shown in FIGS. 8A to 8D together with Tables 5A to 5C. In FIGS. 8A to 8D, the logarithmic Y axis depicts the count of surviving cells. The dotted line indicates the limit of detection (LOD) given by plating of 2 ul of the reaction mix (500 CFU/ml). Each combination of the natural 10 H-domains and the natural 9 B-regions was assessed, including the natural endolysins (H1B1, H2B2, H3B3, etc.), plus H6B6. […] The activity of each construct was measured on each of the 4 main Gardnerella species G. vaginalis sensu stricto, G. leopoldii, G. piotii, and G. swidsinkii. All conditions have been measured in triplicate. The survival after 5 hours incubation at pH 5.0 under anaerobic conditions with endolysins vs. buffer was measured by quantitative plating. The values indicate the log 10 of the ratio of surviving CFU for treated vs. untreated cells. The average of the triplicate measurements is used. In tables 5A and 5B, high negative log 10 values, e.g. −6.7, −5.5, −4.8 etc. are associated with high enzymatic activity, while log 10 values closer to zero or even positive log 10 values are associated with low or no enzymatic activity. […] Inversely, a reduction value of −3.7 means a 10^3.7-fold (=5012-fold) reduction of viable CFU in treated sample vs. untreated control.
(§2) Gardnerella cells were recovered from cryo stock by plating on Chocolate Agar plates (Beckton Dickinson) and incubating for 48 h at 37° C. under anaerobic conditions. For Lactobacilli, BD Schaedler/5% sheep blood agar plates were used instead. Colonies were scraped from the plate, resuspended in Hardy Broth or NYC-III-HS-5.0 at the pH as indicated, and the suspension adjusted to OD (610 or 620 nm as indicated) 0.1. It has to be noted that two Tecan Microplate readers, having respectively a 610 nm or 620 nm filter, have been used interchangeably in the experiments. Although it doesn't make any difference for the experiments, the exact wavelength used is specified in each example. If not stated otherwise, 90 μl cell suspension was mixed with 10 μl endolysin solution, for the different species/endolysin combinations, in 384-well plates. OD(610-620 nm as indicated) was measured at the beginning of the reaction and at the end, either as two measurement points or as a continuous kinetic in a Tecan F200 Microplate reader. The reactions were incubated for 5 hours (or otherwise the time indicated) at 37° C. under anaerobic, micro-aerophilic or aerobic conditions as indicated. Anaerobic conditions intend that oxygen was fully depleted from the container in which the bacteria are incubated (Sigma-Aldrich anaerobic jar or sealable lunch box) with an anaerobic sachet, and the lack of oxygen was confirmed with an anaerobic indicator inside the container. Where micro-aerophilic conditions are indicated, the candle-in-a-jar method was used (tea candle lit in an appropriate sealable container, which reduces oxygen levels until the flame dies out). Then each well was diluted in 5 steps (10^−1 to 10^−5) using 96-U-well bottom plates, and 2 μl of each dilution of each reaction mix are plated on BD Chocolate agar plates or BD Schaedler/5% sheep blood agar plates for Gardnerella and Lactobacilli, respectively, for detecting and quantifying surviving CFU. Detection plates were incubated at 37° C. for 48 hours under anaerobic conditions.

| Molecule | log 10 of the ratio of surviving CFU for treated vs. untreated cells [log 10] |
| --- | --- |
| B1 | −3.5 |
| B2 | −1.9 |
| B3 | −1.2 |
| B4 | 0.2 |
| B5 | −1.6 |
| B6 | −0.4 |
| B7 | −3.0 |

What follows are molecules tested on G. piotii strain Gv_17 in the same assay as above. Details: 5 hours, pH 5.0, anaerobic, 10 ul endolysin (0.2 mg/ml where possible) + 90 ul 5e7 CFU/ml, average of triplicate.
Assay type: cell-based, Gardnerella piotii
Procedure: (§3) The lysis activity on the four main species of Gardnerella of 91 constructs (natural and domain-swapped endolysins) was quantitatively assessed using the method described in Reference Example 2. Briefly, 90 ul 5e7 CFU/ml of the indicated strain were incubated for 5 hours at pH 5.0 under anaerobic conditions with 10 ul endolysin (concentration adjusted to 0.2 mg/ml where possible, see Table 4).
as §1, §2

| Molecule | log 10 of the ratio of surviving CFU for treated vs. untreated cells [log 10] |
| --- | --- |
| B1 | −2.4 |
| B2 | −0.9 |
| B3 | −2.5 |
| B4 | −0.1 |
| B5 | −1.2 |
| B6 | −0.4 |
| B7 | −1.5 |

The molecules below were run on G. swidsinskii strain Gv_23 in the same assay as above. Details: 5 hours, pH 5.0, anaerobic, 10 ul endolysin (0.2 mg/ml where possible) + 90 ul 5e7 CFU/ml, average of triplicate.
Assay type: cell-based, Gardnerella swidsinskii
Procedure: as §3, §1, §2

| Molecule | log 10 of the ratio of surviving CFU for treated vs. untreated cells [log 10] |
| --- | --- |
| B1 | −5.5 |
| B2 | −3.5 |
| B3 | −5.4 |
| B4 | −0.1 |
| B5 | −3.2 |
| B6 | −2.0 |
| B7 | −5.4 |

What follows are molecules tested on four Gardnerella strains (Gv_9, Gv_11, Gv_17, Gv_23) (assay: CFU reduction averaged across the four Gardnerella strains, with activity ranks). Details: pH 5.0, 5 hours, anaerobic.
Assay type: cell-based
Procedure: as §3, §1
as §2, with “out).” for “out). Then each well was diluted in 5 steps (10^−1 to 10^−5) using 96-U-well bottom plates, and 2 μl of each dilution of each reaction mix are plated on BD Chocolate agar plates or BD Schaedler/5% sheep blood agar plates for Gardnerella and Lactobacilli, respectively, for detecting and quantifying surviving CFU. Detection plates were incubated at 37° C. for 48 hours under anaerobic conditions.”

| Molecule | average of the log 10 activities of each construct across the four Gardnerella strains [log 10] |
| --- | --- |
| B1 | −3.3 |
| B2 | −1.9 |
| B3 | −2.6 |
| B4 | 0.1 |
| B5 | −2.0 |
| B6 | −0.8 |
| B7 | −3.0 |

Same assay, conditions: rank 1-91, based on the data of Table 5B

| Molecule | activity rank of all endolysins |
| --- | --- |
| B1 | 6 |
| B2 | 44 |
| B3 | 25 |
| B4 | 87 |
| B5 | 40 |
| B6 | 76 |
| B7 | 13 |
